We go through four molecules from paper PMC8809517, “Cofactor-independent RNA editing by a synthetic S-type PPR protein”.

Assay in all cases: high-throughput RNA pulldown from lysate on Ni-NTA beads; HRP: 50 mM Tris pH 8, 150 mM NaCl, 1 mM beta-mercaptoethanol, 50 ug/ml BSA, 3 ug/ml yeast RNA, 0.5% heparin; ITC and FP: Tris pH 8, 200 mM KCl, 5% glycerol; MST: 50 mM Tris pH 8, 200 mM NaCl, 1 mM DTT, BSA, heparin, 0.05% Tween 20
What all share (conditions): tags: N-terminal His-eGFP

For series [1], the target named is T1, GFP-9S library array, motif 4 ND N98Y;D124G (synthetic construct, N98Y;D124G).
T1 chain: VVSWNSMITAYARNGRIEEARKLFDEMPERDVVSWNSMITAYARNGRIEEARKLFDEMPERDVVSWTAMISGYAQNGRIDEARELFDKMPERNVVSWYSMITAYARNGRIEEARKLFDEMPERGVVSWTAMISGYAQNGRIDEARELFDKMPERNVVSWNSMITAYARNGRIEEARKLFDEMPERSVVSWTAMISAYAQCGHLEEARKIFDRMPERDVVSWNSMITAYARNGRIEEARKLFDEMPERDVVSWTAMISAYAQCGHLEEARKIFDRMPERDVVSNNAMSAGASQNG

The target of series [2] is T2, GFP-9S library array, motif 4 ND N98C;D124K (synthetic construct, N98C;D124K).
T2 chain: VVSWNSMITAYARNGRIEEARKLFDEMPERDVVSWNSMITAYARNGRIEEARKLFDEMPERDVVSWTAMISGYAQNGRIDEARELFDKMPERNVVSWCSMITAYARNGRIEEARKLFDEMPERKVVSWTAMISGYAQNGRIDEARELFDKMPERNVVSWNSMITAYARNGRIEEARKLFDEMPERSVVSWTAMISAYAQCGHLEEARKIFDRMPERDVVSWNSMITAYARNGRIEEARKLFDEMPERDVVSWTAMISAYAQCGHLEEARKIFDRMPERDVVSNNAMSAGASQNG

Series [3] has as its target T3, GFP-9S library array, motif 4 ND N98L;D124L (synthetic construct, N98L;D124L).
T3 chain: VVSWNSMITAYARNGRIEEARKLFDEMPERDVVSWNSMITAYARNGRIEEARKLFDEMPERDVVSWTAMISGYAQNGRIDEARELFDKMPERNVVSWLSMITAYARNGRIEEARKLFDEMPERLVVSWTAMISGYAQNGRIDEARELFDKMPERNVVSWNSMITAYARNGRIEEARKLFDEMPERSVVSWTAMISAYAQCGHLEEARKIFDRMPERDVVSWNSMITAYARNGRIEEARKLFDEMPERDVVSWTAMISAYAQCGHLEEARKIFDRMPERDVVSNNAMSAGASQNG

Series [4] deals with T4, GFP-9S library array, motif 4 ND N98G;D124M (synthetic construct, N98G;D124M).
T4 chain: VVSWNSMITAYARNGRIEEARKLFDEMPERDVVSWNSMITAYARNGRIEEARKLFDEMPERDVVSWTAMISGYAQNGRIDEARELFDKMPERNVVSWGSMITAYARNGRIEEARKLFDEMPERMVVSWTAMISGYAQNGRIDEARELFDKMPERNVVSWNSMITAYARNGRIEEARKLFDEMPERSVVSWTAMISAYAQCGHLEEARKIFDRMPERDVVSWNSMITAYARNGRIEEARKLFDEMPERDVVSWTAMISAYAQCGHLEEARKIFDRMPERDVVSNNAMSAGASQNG

In series [5] the target is T5, GFP-9S library array, motif 4 ND N98L (synthetic construct, N98L).
T5 chain: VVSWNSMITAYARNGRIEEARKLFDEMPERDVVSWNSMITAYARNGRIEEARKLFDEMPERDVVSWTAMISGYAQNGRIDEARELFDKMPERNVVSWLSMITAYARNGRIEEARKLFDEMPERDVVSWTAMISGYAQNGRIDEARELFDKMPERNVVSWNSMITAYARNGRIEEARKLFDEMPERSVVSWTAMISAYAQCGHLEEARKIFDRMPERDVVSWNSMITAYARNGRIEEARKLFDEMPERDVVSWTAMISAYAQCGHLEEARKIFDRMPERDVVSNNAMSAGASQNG

With AUUACACGUGA (ssRNA) [Cy5-rpoA], the Kd amounted to 183 nM in series [1] (label: 5' Cy5); 96.2 nM in series [2] (label: 5' Cy5); 74.9 nM in series [3] (label: 5' Cy5); 57.8 nM in series [4] (label: 5' Cy5); 214 nM in series [5] (label: 5' Cy5).
Consider AUUAGACGUGA (ssRNA) [Cy5-rpoA-G], for which the Kd was 177 nM in series [1] (label: 5' Cy5); 91.1 nM in series [2] (label: 5' Cy5); 76.1 nM in series [3] (label: 5' Cy5); 66 nM in series [4] (label: 5' Cy5); 183 nM in series [5] (label: 5' Cy5).
As to AUUAAACGUGA (ssRNA) [IR-rpoA-A], the Kd amounted to 567 nM in series [1] (label: 5' IRDye 800CW); 66.3 nM in series [2] (label: 5' IRDye 800CW); 157 nM in series [3] (label: 5' IRDye 800CW); 94.3 nM in series [4] (label: 5' IRDye 800CW); 452 nM in series [5] (label: 5' IRDye 800CW).
Regarding AUUAUACGUGA (ssRNA) [IR-rpoA-U], the Kd is 211 nM in series [1] (label: 5' IRDye 800CW); 139 nM in series [2] (label: 5' IRDye 800CW); 158 nM in series [3] (label: 5' IRDye 800CW); 149 nM in series [4] (label: 5' IRDye 800CW); 66.3 nM in series [5] (label: 5' IRDye 800CW).
